The values below come from publication PMC11698036, “Borg5 restricts contractility and motility in epithelial MDCK cells” (Journal of Cell Science, 2024).

Experiment [1] addresses T1, His–Borg5 (recombinant mouse Borg5, Cdc42EP1) (mouse, UniProt Q91W92 1-409).
T1 construct: Borg5 (Cdc42EP1), mouse cDNA (Borg5–Myc cDNA of Vong et al., 2010), PCR-cloned into pet28a+; All recombinant Borg5 constructs were based on mouse Borg5–Myc cDNA; Runs at 50 kDa on the His blot; also called His-tagged Borg5; source: E. coli BL21(DE3), purified (boiled, 8 M urea, Ni-NTA agarose; also purified under native conditions)
T1 sequence (looked up): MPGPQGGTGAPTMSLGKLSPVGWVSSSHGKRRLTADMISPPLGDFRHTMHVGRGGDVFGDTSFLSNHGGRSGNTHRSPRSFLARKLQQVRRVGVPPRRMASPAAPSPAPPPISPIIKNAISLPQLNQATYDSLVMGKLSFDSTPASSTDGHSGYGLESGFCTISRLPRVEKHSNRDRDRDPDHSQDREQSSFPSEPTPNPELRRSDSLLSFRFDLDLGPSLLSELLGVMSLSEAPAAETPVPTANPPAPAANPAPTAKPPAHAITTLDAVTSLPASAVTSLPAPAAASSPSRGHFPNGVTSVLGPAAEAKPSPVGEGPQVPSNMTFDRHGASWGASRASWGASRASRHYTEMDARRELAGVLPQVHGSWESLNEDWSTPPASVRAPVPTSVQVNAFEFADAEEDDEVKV
Description: pull-down; three-way assay: His–MyoIIA-Rod pre-incubated with His–Borg5, then bound to His–SEPT2/6/7/9–Strep immobilised on Strep-Tactin Sepharose; septin buffer (300 mM KCl), 4°C; biotin elution; His blot; four experiments. Particulars: both partners purified.

Experiment [2] has as its target T1, His–Borg5 (recombinant mouse Borg5, …). Description: pull-down; three-way assay: His–Borg5 pre-incubated with septin 9-6-7-2 complexes, then bound to GST–MyoIIA-Rod immobilised on glutathione resin; septin buffer (300 mM KCl), 4°C; Coomassie gel and His blot; two experiments. Particulars: both partners purified.

B1: His-tagged rod domain of myosin IIA (His–MyoIIA-Rod) (domain or fragment, UniProt P35579 1339-1960, looked up)
chain: NSFREQLEEEEEAKHNLEKQIATLHAQVADMKKKMEDSVGCLETAEEVKRKLQKDLEGLSQRHEEKVAAYDKLEKTKTRLQQELDDLLVDLDHQRQSACNLEKKQKKFDQLLAEEKTISAKYAEERDRAEAEAREKETKALSLARALEEAMEQKAELERLNKQFRTEMEDLMSSKDDVGKSVHELEKSKRALEQQVEEMKTQLEELEDELQATEDAKLRLEVNLQAMKAQFERDLQGRDEQSEEKKKQLVRQVREMEAELEDERKQRSMAVAARKKLEMDLKDLEAHIDSANKNRDEAIKQLRKLQAQMKDCMRELDDTRASREEILAQAKENEKKLKSMEAEMIQLQEELAAAERAKRQAQQERDELADEIANSSGKGALALEEKRRLEARIAQLEEELEEEQGNTELINDRLKKANLQIDQINTDLNLERSHAQKNENARQQLERQNKELKVKLQEMEGTVKSKYKASITALEAKIAQLEEQLDNETKERQAACKQVRRTEKKLKDVLLQVDDERRNAEQYKDQADKASTRLKQLKRQLEEAEEEAQRANASRRKLQRELEDATETADAMNREVSSLKNKLRRGDLPFVVPRRMARKGAGDGSDEEVDGKADGAEAKPAE
notes: Myosin IIA heavy chain (MYH9), rod domain, amino acids 1339–1960, in pet28a; Construct provided by Anne Bresnick; also called His-MyoIIRod; His-MyoRod; source: E. coli BL21(DE3), purified (Mg-ATP step, nickel agarose)
With B1, in experiment [1], the “Borg5–SEPT binding with His-MyoIIRod, relative to that without MyoIIRod” value was 0.57 fraction of that without MyoIIRod.

B2: septin 9–septin 6–septin 7–septin 2 complex (His–SEPT2/6/7/9–Strep) (complex)
chain 1: MSKQQPTQFINPETPGYVGFANLPNQVHRKSVKKGFEFTLMVVGESGLGKSTLINSLFLTDLYPERIIPGAAEKIERTVQIEASTVEIEERGVKLRLTVVDTPGYGDAINCRDCFKTIISYIDEQFERYLHDESGLNRRHIIDNRVHCCFYFISPFGHGLKPLDVAFMKAIHNKVNIVPVIAKADTLTLKERERLKKRILDEIEEHSIKIYHLPDAESDEDEDFKEQTRLLKASIPFSVVGSNQLIEAKGKKVRGRLYPWGVVEVENPEHNDFLKLRTMLITHMQDLQEVTQDLHYENFRSERLKRGGRKVENEDMNKDQILLEKEAELRRMQEMIARMQAQMQMQMQGGDSDSGALGQHV
chain 2: MAATDIARQVGEGCRTVPLAGHVGFDSLPDQLVNKSVSQGFCFNILCVGETGLGKSTLMDTLFNTKFEGEPATHTQPGVQLQSNTYDLQESNVRLKLTIVSTVGFGDQINKEDSYKPIVEFIDAQFEAYLQEELKIRRVLHTYHDSRIHVCLYFIAPTGHSLKSLDLVTMKKLDSKVNIIPIIAKADAISKSELTKFKIKITSELVSNGVQIYQFPTDDESVAEINGTMNAHLPFAVIGSTEELKIGNKMMRARQYPWGTVQVENEAHCDFVKLREMLIRVNMEDLREQTHTRHYELYRRCKLEEMGFKDTDPDSKPFSLQETYEAKRNEFLGELQKKEEEMRQMFVQRVKEKEAELKEAEKELHEKFDRLKKLHQDEKKKLEDKKKSLDDEVNAFKQRKTAAELLQSQGSQAGGSQTLKRDKEKKNNPWLCTE
chain 3: MSVSARSAAAEERSVNSSTMVAQQKNLEGYVGFANLPNQVYRKSVKRGFEFTLMVVGESGLGKSTLINSLFLTDLYSPEYPGPSHRIKKTVQVEQSKVLIKEGGVQLLLTIVDTPGFGDAVDNSNCWQPVIDYIDSKFEDYLNAESRVNRRQMPDNRVQCCLYFIAPSGHGLKPLDIEFMKRLHEKVNIIPLIAKADTLTPEECQQFKKQIMKEIQEHKIKIYEFPETDDEEENKLVKKIKDRLPLAVVGSNTIIEVNGKRVRGRQYPWGVAEVENGEHCDFTILRNMLIRTHMQDLKDVTNNVHYENYRSRKLAAVTYNGVDNNKNKGQLTKSPLAQMEEERREHVAKMKKMEMEMEQVFEMKVKEKVQKLKDSEAELQRRHEQMKKNLEAQHKELEEKRRQFEDEKANWEAQQRILEQQNSSRTLEKNKKKGKIF
chain 4: MKKSYSGGTRTSSGRLRRLGDSSGPALKRSFEVEEVETPNSTPPRRVQTPLLRATVASSTQKFQDLGVKNSEPSARHVDSLSQRSPKASLRRVELSGPKAAEPVSRRTELSIDISSKQVENAGAIGPSRFGLKRAEVLGHKTPEPAPRRTEITIVKPQESAHRRMEPPASKVPEVPTAPATDAAPKRVEIQMPKPAEAPTAPSPAQTLENSEPAPVSQLQSRLEPKPQPPVAEATPRSQEATEAAPSCVGDMADTPRDAGLKQAPASRNEKAPVDFGYVGIDSILEQMRRKAMKQGFEFNIMVVGQSGLGKSTLINTLFKSKISRKSVQPTSEERIPKTIEIKSITHDIEEKGVRMKLTVIDTPGFGDHINNENCWQPIMKFINDQYEKYLQEEVNINRKKRIPDTRVHCCLYFIPATGHSLRPLDIEFMKRLSKVVNIVPVIAKADTLTLEERVHFKQRITADLLSNGIDVYPQKEFDEDSEDRLVNEKFREMIPFAVVGSDHEYQVNGKRILGRKTKWGTIEVENTTHCEFAYLRDLLIRTHMQNIKDITSSIHFEAYRVKRLNEGSSAMANGMEEKEPEAPEM
notes: Prepared according to Castro-Linares et al. (2022); Tag ends are read from the plasmid names; As I recall, these Addgene plasmids hold mouse SEPT2 and human SEPT6, SEPT7 and SEPT9_i1; also called septin 9-6-7-2; SEPT complexes; source: E. coli BL21(DE3), co-expressed, purified (nickel agarose, then Strep-Tactin Sepharose); not shown: 6xHis, N-terminal, kept; Strep tag, C-terminal, kept; copies: + …
Regarding B2, in experiment [2], the “His–Borg5 binding to Myo–GST with SEPT complexes, relative to that without septins (experiment 1)” value was 0.6 fraction of that observed without septins present and the “His–Borg5 binding to Myo–GST with SEPT complexes, relative to that without septins (experiment 2)” value is 0.3 fraction of that observed without septins present.
